From paper PMC5737651
Like-named read-outs stand apart in the source and are kept apart here.

B1: ssDNA (SS) (ssDNA)
DNA: GGGTGAACCTGCAGGTGGGCAAAGATGTCCTAGCAATGTAATCGTCAAGCTTTATGCCGT
B2: Holliday junction (HJ) (structured_DNA)
DNA 1: B1 DNA
DNA 2: ACGCTGCCGAATTCTACCAGTGCCAGCGACGGACATCTTTGCCCACCTGCAGGTTCACCC
DNA 3: ACGGCATAAAGCTTGACGATTACATTGCTACATGGAGCTGTCTAGAGGATCCGACTATCG
DNA 4: CGATAGTCGGATCCTCTAGACAGCTCCATGGTCGCTGGCACTGGTAGAATTCGGCAGCGT

Key:
Experiment in all cases: EMSA
F3 = F3 (human, UniProt Q9BXW9 841-1178)
F1 = F1 (human, UniProt Q9BXW9 1-588)
F4 [1] = target: T1, F4 (human, UniProt Q9BXW9 1179-1451)
FANCD2 WT full-length [2] = target: T2, FANCD2 WT full-length (human, UniProt Q9BXW9 1-1451)
F3Mut1aa [3] = target: T3, F3Mut1aa (human, UniProt Q9BXW9 841-1178, K865A)
F1Mut5aa (K-A) [4] = target: T4, F1Mut5aa (K-A) (human, UniProt Q9BXW9 1-588, S29A;K30A;K31A;T32A;K34A)
F2 [5] = target: T5, F2 (human, UniProt Q9BXW9 589-840)
FANCD2 WT full-length [6] = target: T2, FANCD2 WT full-length; remark: listed apart in the source
F4 [7] = target: T1, F4; remark: listed apart in the source
F3Mut1aa [8] = target: T3, F3Mut1aa; remark: listed apart in the source
F1Mut5aa (K-A) [9] = target: T4, F1Mut5aa (K-A); remark: listed apart in the source
F2 [10] = target: T5, F2; remark: listed apart in the source

T4 sequence (Q9BXW9 1-588 S29A/K30A/K31A/T32A/K34A): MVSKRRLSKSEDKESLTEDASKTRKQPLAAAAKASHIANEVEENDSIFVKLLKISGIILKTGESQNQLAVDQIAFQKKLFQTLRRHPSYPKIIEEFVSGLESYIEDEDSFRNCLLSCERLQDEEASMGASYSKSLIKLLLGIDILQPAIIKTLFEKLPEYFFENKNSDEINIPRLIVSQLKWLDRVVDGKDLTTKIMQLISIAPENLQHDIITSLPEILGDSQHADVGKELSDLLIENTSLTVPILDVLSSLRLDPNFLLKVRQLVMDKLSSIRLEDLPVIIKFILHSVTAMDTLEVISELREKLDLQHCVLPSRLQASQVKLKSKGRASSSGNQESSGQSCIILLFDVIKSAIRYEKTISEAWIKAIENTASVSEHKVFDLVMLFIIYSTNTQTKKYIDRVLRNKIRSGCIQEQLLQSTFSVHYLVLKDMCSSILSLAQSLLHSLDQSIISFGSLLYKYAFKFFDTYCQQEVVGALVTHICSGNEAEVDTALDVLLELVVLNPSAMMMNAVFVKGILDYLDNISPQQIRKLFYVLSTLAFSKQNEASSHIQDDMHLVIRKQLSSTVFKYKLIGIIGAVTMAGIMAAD
T5 sequence (Q9BXW9 589-840): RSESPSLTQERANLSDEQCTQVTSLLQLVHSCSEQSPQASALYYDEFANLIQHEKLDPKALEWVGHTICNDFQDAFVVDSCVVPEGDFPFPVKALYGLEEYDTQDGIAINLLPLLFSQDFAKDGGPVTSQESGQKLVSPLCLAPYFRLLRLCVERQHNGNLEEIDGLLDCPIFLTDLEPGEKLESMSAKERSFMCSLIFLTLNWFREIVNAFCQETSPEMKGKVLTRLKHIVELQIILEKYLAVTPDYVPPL
T3 sequence (Q9BXW9 841-1178 K865A): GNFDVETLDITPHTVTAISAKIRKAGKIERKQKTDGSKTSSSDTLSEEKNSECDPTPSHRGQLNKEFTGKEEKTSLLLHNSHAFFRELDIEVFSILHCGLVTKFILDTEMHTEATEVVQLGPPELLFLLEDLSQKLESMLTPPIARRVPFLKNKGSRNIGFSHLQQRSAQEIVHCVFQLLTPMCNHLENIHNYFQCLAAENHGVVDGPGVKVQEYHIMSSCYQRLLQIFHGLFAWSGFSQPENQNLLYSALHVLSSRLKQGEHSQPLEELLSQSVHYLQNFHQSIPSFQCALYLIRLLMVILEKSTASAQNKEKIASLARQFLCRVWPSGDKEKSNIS
T2 sequence (Q9BXW9 whole entry): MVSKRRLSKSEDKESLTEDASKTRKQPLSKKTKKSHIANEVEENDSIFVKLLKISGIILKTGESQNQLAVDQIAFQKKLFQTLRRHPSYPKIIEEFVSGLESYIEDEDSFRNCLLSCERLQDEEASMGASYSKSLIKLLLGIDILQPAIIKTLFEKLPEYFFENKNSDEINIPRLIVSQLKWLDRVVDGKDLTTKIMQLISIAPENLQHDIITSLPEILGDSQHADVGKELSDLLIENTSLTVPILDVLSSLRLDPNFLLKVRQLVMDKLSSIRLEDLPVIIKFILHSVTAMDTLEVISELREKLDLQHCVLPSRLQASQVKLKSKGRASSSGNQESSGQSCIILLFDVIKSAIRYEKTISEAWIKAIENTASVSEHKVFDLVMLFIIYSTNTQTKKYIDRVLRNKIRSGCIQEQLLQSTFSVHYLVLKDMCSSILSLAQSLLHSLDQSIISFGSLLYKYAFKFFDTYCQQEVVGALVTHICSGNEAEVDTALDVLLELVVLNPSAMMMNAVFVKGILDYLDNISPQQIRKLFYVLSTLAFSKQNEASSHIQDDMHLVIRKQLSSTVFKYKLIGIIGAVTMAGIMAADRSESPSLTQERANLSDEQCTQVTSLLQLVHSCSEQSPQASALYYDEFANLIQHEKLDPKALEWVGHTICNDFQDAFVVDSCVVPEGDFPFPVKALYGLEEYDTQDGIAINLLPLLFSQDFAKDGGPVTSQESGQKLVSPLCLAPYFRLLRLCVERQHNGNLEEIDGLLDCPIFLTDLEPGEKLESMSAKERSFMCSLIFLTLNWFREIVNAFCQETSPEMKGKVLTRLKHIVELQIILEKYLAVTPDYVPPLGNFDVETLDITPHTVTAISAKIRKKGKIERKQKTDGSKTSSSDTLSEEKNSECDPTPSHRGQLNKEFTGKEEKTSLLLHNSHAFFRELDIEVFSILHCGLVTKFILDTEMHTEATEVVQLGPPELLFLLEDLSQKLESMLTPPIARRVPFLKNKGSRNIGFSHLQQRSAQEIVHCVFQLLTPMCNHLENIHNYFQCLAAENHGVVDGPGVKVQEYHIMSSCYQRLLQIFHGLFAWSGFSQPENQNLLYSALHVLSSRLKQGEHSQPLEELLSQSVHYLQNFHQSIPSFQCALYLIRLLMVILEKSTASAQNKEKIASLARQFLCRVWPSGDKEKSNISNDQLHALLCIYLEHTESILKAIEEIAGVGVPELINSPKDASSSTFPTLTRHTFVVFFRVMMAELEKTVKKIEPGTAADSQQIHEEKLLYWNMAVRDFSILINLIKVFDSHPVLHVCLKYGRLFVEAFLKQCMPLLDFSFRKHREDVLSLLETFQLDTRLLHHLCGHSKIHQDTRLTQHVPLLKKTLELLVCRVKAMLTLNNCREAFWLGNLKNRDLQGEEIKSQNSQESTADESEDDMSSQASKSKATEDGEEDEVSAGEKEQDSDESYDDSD
T1 sequence (Q9BXW9 1179-1451): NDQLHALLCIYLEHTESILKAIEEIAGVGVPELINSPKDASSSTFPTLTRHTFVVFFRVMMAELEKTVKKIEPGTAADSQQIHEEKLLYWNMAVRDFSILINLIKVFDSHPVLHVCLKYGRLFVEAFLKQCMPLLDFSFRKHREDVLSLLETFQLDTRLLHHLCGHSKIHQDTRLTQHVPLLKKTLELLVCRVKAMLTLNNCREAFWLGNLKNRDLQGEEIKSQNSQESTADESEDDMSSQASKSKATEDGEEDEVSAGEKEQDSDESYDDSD
Chain of F3 (Q9BXW9 841-1178): as the sequence (Q9BXW9 841-1178 K865A) above, with A25K counted along it
Chain of F1 (Q9BXW9 1-588): as the sequence (Q9BXW9 1-588 S29A/K30A/K31A/T32A/K34A) above, with A29S, A30K, A31K, A32T, A34K counted along it

Row | Binder | binding result (F3) | binding result (F1) | binding result (F4 [1]) | binding result (FANCD2 WT full-length [2]) | binding result (F3Mut1aa [3]) | binding result (F1Mut5aa (K-A) [4]) | binding result (F2 [5]) | binding result (FANCD2 WT full-length [6]) | binding result (F4 [7]) | binding result (F3Mut1aa [8]) | binding result (F1Mut5aa (K-A) [9]) | binding result (F2 [10])
1 | B1 | binds | binds | no binding | binds | no binding | no binding | no binding | – | – | – | – | –
2 | B2 | – | – | – | – | – | – | – | binds | no binding | no binding | no binding | no binding
